The record followed here is patent publication US20240132622A1 (Bristol-Myers Squibb, published 2024).

To fix the notation:
B1: hz20-7 (antibody, IgG1, V domains shown)
VH: QVQLVQSGAEVKKPGASVKVSCKASGYTFTNYGISWVRQAPGQGLEWMGEIYPRSGNTYHNEKFKDRVTMTTDTSTSTAYMELRSLRSDDTAVYYCARSMITTRYWYFDVWGKGTTVTVSS
VL: DIVMTQSPDSLAVSLGERATINCRASESVDTYGNSFMHWYQQKPGQPPKLLIYLASNLESGVPDRFSGSGSGTDFTLTISSLQAEDVAVYYCQQNNEDPLTFGQGTKLEIK
notes: also called clone 20-based hz20-7 antibody
B2: hz20-3 (antibody, V domains shown)
VH: B1 VH with Q1E, T72A, T74K, Y95F, K113Q, T116L
VL: DIQMTQSPSSLSASVGDRVTITCRASESVDTYGNSFMHWYQQKPGKAPKLLIYLASNLESGVPSRFSGSGSGTDFTLTISSLQPEDFATYYCQQNNEDPLTFGQGTKVEIK
notes: light constant region not tied to this antibody
B3: hz20-10 (antibody, V domains shown)
VH: B1 VH with T74K
VL: B1 VL with S80D
notes: as for B2
B4: hz20-11 (antibody, V domains shown)
VH: B1 VH with K12A, A40R, D89E
VL: B1 VL
notes: as for B2
B5: hz20-13 (antibody, V domains shown)
VH: B1 VH with A40R, T74K, D89E
VL: B1 VL
notes: as for B2
B6: hz20-8 (antibody, V domains shown)
VH: B1 VH
VL: B1 VL with S80D
notes: as for B2
B7: hz20-14 (antibody, V domains shown)
VH: B1 VH with A40R, T74K, D89E
VL: B1 VL with S80D
notes: as for B2
B8: hz20-5 (antibody, V domains shown)
VH: B1 VH with A40R, M48I, T72A, A79V, R84S, D89E
VL: B1 VL with Q104A, I110L
notes: as for B2
B9: hz20-9 (antibody, V domains shown)
VH: B1 VH with T74K
VL: B1 VL
notes: as for B2
B10: hz20-12 (antibody, V domains shown)
VH: B1 VH with K12A, A40R, D89E
VL: B1 VL with S80D
notes: as for B2
B11: hz20-4 (antibody, V domains shown)
VH: B1 VH with T72A, A79V, R84S, D89E
VL: B1 VL with Q104A, I110L
notes: as for B2
B12: hz13-12 (antibody, IgG1, V domains shown)
VH: EVQLVQSGAEVKKPGATVKISCTSSDFNIKDHFIHWVQQAPGKGLEWMGRIDPEDDETKYAPKFQDRVTITADTSTDTAYMELSSLRSEDTAVYYCAGYGNYEGAMDYWGQGTTVTVSS
VL: DVVMTQSPLSLPVTLGQPASISCRASENVNNYGIGFMNWFQQRPGQSPRLLIYAASRRGSGVPDRFSGSGSGTDFTLKISRVEEEDVGVYYCQQSKEVPYTFGGGTKVEIK
notes: also called clone 13-based hz13-12 antibody
B13: hz13-10 (antibody, V domains shown)
VH: B12 VH with T23K, S24V
VL: B12 VL
notes: as for B2
B14: hz13-11 (antibody, V domains shown)
VH: B12 VH
VL: B12 VL with L50R, E84A
notes: as for B2
B15: hz13-12 D31E (antibody, human IgG1, kappa, V domains shown)
VH: B12 VH with D31E
VL: DVVMTQSPLSLPVTLGQPASISCRASENVNNYGIGFMNWFQQRPGQSPRLLIYAASRRGSGVPDRFSGSGSGTDFTLKISRVEEEDVGVYYCQQSKEVPYTFGGGTKVEIKR
notes: IgG1.3f; also called hz3-12 D31E

Positions count from the first letter of the chain named. In names and notes the source's numbering stands.

T1 sequence (Q9UM07 whole entry): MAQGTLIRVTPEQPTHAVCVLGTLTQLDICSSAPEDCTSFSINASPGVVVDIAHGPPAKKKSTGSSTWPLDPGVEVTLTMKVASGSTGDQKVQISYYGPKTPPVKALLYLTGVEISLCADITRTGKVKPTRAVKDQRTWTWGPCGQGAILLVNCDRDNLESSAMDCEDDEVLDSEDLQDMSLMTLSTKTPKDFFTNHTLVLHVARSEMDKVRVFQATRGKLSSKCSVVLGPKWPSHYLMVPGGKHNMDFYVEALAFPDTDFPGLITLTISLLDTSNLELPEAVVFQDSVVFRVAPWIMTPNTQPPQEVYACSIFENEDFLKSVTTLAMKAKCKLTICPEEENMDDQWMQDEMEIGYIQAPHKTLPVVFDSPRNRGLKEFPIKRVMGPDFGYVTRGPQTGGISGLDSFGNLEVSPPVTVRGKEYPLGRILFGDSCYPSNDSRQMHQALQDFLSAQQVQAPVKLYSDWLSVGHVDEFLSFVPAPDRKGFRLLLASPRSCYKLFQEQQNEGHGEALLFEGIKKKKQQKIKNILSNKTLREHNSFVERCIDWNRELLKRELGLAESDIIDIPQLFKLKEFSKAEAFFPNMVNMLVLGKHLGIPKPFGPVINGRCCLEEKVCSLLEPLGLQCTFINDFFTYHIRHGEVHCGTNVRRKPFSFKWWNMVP

The first test concerns the target T1, recombinant human PAD4 (human, UniProt Q9UM07 1-663).
T1 construct: also called rhPAD4; hPAD4
The test is described as follows: SPR 37 C, captured antibody, PAD4 analyte, 2 mM EDTA. The method, then:
(§1) For SPR measurements, either an anti-human capture surface or Protein A surface (Cytiva catalog #29127555) was used. Anti-human capture surface was prepared by immobilizing anti-human capture antibody (Cytiva catalog #29234600) onto flow cells of a CM5 or CM4 biosensor following the manufacturer's amine coupling protocol (Cytiva catalog #BR-1006-33). SPR experiments were conducted at 37° C. using HBS-P (150 mM NaCl, 10 mM HEPES, pH 7.6, 0.05% Tween-20) (TEKNOVA catalog #H8032) with additional 150 mM NaCl and 1 mM or 2 mM CaCl₂) (see Table 2) or 2 mM EDTA (see Table 3) as running buffer. Antibodies were diluted to 1.5 μg/mL in the running buffer, and were captured across active biosensor flow cells at 10 μL/min for 15 to 30 seconds. […] The association and dissociation of the antibodies with PAD4 were measured. One 30 second injection followed by one 15 second injection of 10 mM glycine pH 1.5 was used to regenerate the Protein A capture surface between assay cycles. For anti-human capture surface, two 30 second injections of 3 M MgCl₂ was used for regeneration. SPR measurements for mAb20 and mAb 13 SPR were done in the presence of 2 mM CaCl₂). The remaining antibodies were tested in the presence of 1 mM CaCl₂).
Rate constants kₒₙ and koff were derived from reference flow cell- and 0 nM blank-subtracted sensorgrams, and were fit to a 1:1 binding model in Biacore® Insight Evaluation software version 3.0.12.15655. Deviations from 1:1 binding model were observed, which may be caused by increased dimerization of PAD4 at higher concentrations. The equilibrium dissociation constant, KD, was calculated as the ratio of rate constants koff/kₒₙ for each PAD4 antibody. For those antibodies that were tested in multiple SPR experiments, the average value and standard deviation from two or three separate experiments are listed in Tables 2 and 3.
In the case of B1, the Kd is 0.5 nM, the off-rate constant (koff) came out at 0.00021 s⁻¹ and the kon turned out to be 380000 M⁻¹ s⁻¹.

Turning to B2, the dissociation constant (Kd) is 0.9 nM, the koff was 0.00031 s⁻¹ and the kon came to 340000 M⁻¹ s⁻¹.

With B3, the Kd amounted to 0.4 nM, the koff was 0.00018 s⁻¹ and the kon was determined as 480000 M⁻¹ s⁻¹.

With B4, the Kd turned out to be 0.6 nM, the dissociation rate constant (koff) stood at 0.00022 s⁻¹ and the association rate constant (kon) is 390000 M⁻¹ s⁻¹.

As to B5, the Kd came to 0.4 nM, the off-rate constant (koff) is 0.00018 s⁻¹ and the kon was determined as 440000 M⁻¹ s⁻¹.

Consider B6, for which the Kd turned out to be 0.6 nM, the koff was determined as 0.00022 s⁻¹ and the kon turned out to be 360000 M⁻¹ s⁻¹.

For the molecule B7, the Kd is 0.4 nM, the koff came out at 0.00018 s⁻¹ and the kon came to 450000 M⁻¹ s⁻¹.

As for B8, the Kd was 1.7 nM, the koff is 0.0004 s⁻¹ and the on-rate (kon) was 240000 M⁻¹ s⁻¹.

As for B9, the Kd was found to be 0.4 nM, the off-rate constant (koff) stood at 0.00018 s⁻¹ and the kon is 480000 M⁻¹ s⁻¹.

Consider B10, for which the Kd came to 0.6 nM, the koff worked out at 0.00021 s⁻¹ and the kon is 380000 M⁻¹ s⁻¹.

Turning to B11, the dissociation constant (Kd) amounted to 3 nM, the koff is 0.00073 s⁻¹ and the kon turned out to be 240000 M⁻¹ s⁻¹.

The target in another test is T1, recombinant human PAD4. Kind of test: cell-based or functional assay.
For the molecule B1, the “IC50 (average), PAD4 citrullination of peptide …, RapidFire MS” value (“IC50 (average), PAD4 citrullination” for short) came out at 64.7 nM.

Regarding B2, the “IC50 (average), PAD4 citrullination” value is 58 nM.

As to B3, the “IC50 (average), PAD4 citrullination” value was determined as 57.4 nM.

With B4, the “IC50 (average), PAD4 citrullination” value stood at 65.7 nM.

As to B5, the “IC50 (average), PAD4 citrullination” value was 52.6 nM.

Regarding B6, the “IC50 (average), PAD4 citrullination” value was found to be 71.9 nM.

B7: the “IC50 (average), PAD4 citrullination” value turned out to be 56.9 nM.

As for B8, the “IC50 (average), PAD4 citrullination” value stood at 56.5 nM.

On to B9, for which the “IC50 (average), PAD4 citrullination” value is 107 nM.

Consider B10, for which the “IC50 (average), PAD4 citrullination” value amounted to 59 nM.

Consider B11, for which the “IC50 (average), PAD4 citrullination” value was 118 nM.

On to B12, for which the “IC50 (average), PAD4 citrullination” value is 42.4 nM.

As for B13, the “IC50 (average), PAD4 citrullination” value was 55.8 nM.

For B14, the “IC50 (average), PAD4 citrullination” value turned out to be 88.7 nM.

Another test addresses extracellular matrix (ECM) proteins. Kind of test: ECM plate ELISA (Matrigel), 1 uM antibody, A450 over wells without sample. (In general: In an ELISA, binding on a coated surface is turned into a signal by an enzyme label.)
In the case of B1, the ECM Score (1 µM) is 5.

With B2, the ECM Score (1 µM) came to 20.

In turn, B3 returned an ECM Score (1 µM) of 18.

B4 registered an ECM Score (1 µM) of 4.

Turning to B5, the ECM Score (1 µM) was found to be 19.

For B6, the ECM Score (1 µM) came out at 4.

The molecule B7 yielded an ECM Score (1 µM) of 20.

B8 had an ECM Score (1 µM) of 3.

On to B9, for which the ECM Score (1 µM) was found to be 19.

B10 came in with an ECM Score (1 µM) of 3.

With B11, the ECM Score (1 µM) was found to be 1.

Take B12: the ECM Score (1 µM) worked out at 1.

Regarding B13, the ECM Score (1 µM) came to 1.

Regarding B14, the ECM Score (1 µM) came out at 1.

A further test addresses T1, recombinant human PAD4. Kind of test: SPR 37 C, captured antibody, PAD4 analyte, 1 mM CaCl2. The method, then: Their binding to human PAD4 was measured by Surface Plasmon Resonance (SPR). SPR measurements were performed with a Biacore® 8K, 8K+, or T200 instrument (Cytiva). The association rate constants, kₒₙ, dissociation rate constants, koff, and equilibrium dissociation constants, KD, of the antibodies with PAD4 were determined from these SPR measurements.
as §1
Rate constants kₒₙ and koff were derived from reference flow cell- and 0 nM blank-subtracted sensorgrams, and were fit to a 1:1 binding model in Biacore® Insight Evaluation software version 3.0.12.15655. Deviations from 1:1 binding model were observed, which may be caused by increased dimerization of PAD4 at higher concentrations. The equilibrium dissociation constant, KD, was calculated as the ratio of rate constants koff/kₒₙ for each PAD4 antibody.
As for B1, the Kd stood at 0.8 nM, the koff came out at 0.00026 s⁻¹ and the kon was 350000 M⁻¹ s⁻¹.

Turning to B2, the Kd is 0.5 nM, the off-rate constant (koff) turned out to be 0.00023 s⁻¹ and the kon was 500000 M⁻¹ s⁻¹.

On to B3, for which the equilibrium dissociation constant (Kd) was found to be 0.3 nM, the koff came to 0.00017 s⁻¹ and the kon was 640000 M⁻¹ s⁻¹.

Regarding B4, the Kd was found to be 0.9 nM, the koff was 0.00025 s⁻¹ and the kon was found to be 300000 M⁻¹ s⁻¹.

For the molecule B5, the dissociation constant Kd worked out at 0.5 nM, the koff came to 0.00019 s⁻¹ and the kon amounted to 390000 M⁻¹ s⁻¹.

Regarding B6, the dissociation constant Kd turned out to be 0.8 nM, the koff was determined as 0.00025 s⁻¹ and the kon amounted to 320000 M⁻¹ s⁻¹.

With B7, the Kd was found to be 0.6 nM, the koff stood at 0.0002 s⁻¹ and the kon was 340000 M⁻¹ s⁻¹.

As to B8, the dissociation constant (Kd) was found to be 1.9 nM, the koff amounted to 0.00045 s⁻¹ and the association rate constant (kon) was determined as 250000 M⁻¹ s⁻¹.

As to B9, the equilibrium dissociation constant (Kd) is 0.3 nM, the dissociation rate constant (koff) came to 0.00015 s⁻¹ and the kon came to 490000 M⁻¹ s⁻¹.

For the molecule B10, the Kd turned out to be 0.6 nM, the dissociation rate constant (koff) is 0.00019 s⁻¹ and the association rate constant (kon) was 320000 M⁻¹ s⁻¹.

Turning to B11, the Kd amounted to 1.7 nM, the koff was found to be 0.00046 s⁻¹ and the kon worked out at 270000 M⁻¹ s⁻¹.

On to B12, for which the Kd was 0.1 nM, the koff was determined as 0.0002 s⁻¹ and the kon is 3.1e+06 M⁻¹ s⁻¹.

As for B15, the Kd is 0.1 nM, the koff came out at 0.0003 s⁻¹ and the kon stood at 2.7e+06 M⁻¹ s⁻¹.

Consider B13, for which the Kd stood at 0.1 nM, the koff was determined as 0.00017 s⁻¹ and the kon came to 2.2e+06 M⁻¹ s⁻¹.

In the case of B14, the Kd stood at 0.1 nM, the off-rate (koff) amounted to 0.00015 s⁻¹ and the kon is 1.9e+06 M⁻¹ s⁻¹.

The Kd is the equilibrium constant for the complex coming apart. The term koff denotes the first-order rate constant of dissociation. By kon is commonly meant the rate constant with which the complex forms.
